Assay results from patent publication US11534461B2, “High affinity merkel cell polyomavirus T antigen-specific TCRS and uses thereof” (priority 2016, dated 2022).
“And” between values parts separate entries of the source, which are not always exact repeats. Equal values may be shown once.

T1: Merkel cell polyomavirus T antigen KLL epitope homolog (C-terminal cysteine replaced by alanine) peptide on … (human)
T1 peptide: KLLEIAPNA

T2: Merkel cell polyomavirus T antigen (common to large and small T antigen) peptide on HLA-A*02:01 (human)
T2 peptide: KLLEIAPNC

T3: Merkel cell polyomavirus T antigen (common to large and small T antigen) peptide on HLA-A*02:01 (human)
T3 peptide: KLLEIAPNC


Columns and labels:
[1] = system: MCC; assay: Clinical trial: avelumab plus MCPyV-specific T cells and HLA-upregulation (NCT02584829); settings: avelumab in addition to MCPyV-specific T cells and HLA-upregulation
[2] = molecular target: HLA-A*02 (Homo sapiens, UniProt P04439, D140Y/D185E/D98H/E176V/E277Q/G131W/G231S/I119V/I121R/I166T/I218V/L300P/L318F/N151K/N90K/P208A/P217A/Q86G/Q94H/R138H/R169H/T345S); assay: HLA-A*02 binding prediction (ANN, Immune Epitope Database Analysis Resource); settings: KLL epitope versus homologs of other polyomaviruses
From the text: Residues at positions 15, 18 and 20-22 (underlined) are highly divergent.

[3] = molecular target: T1, Merkel cell polyomavirus T antigen KLL …; assay: IFN-g ELISA; T2 + peptide titration; T cell clone or line
[4] = molecular target: T2, Merkel cell polyomavirus T antigen …; assay: multimer staining
[5] = molecular target: T3, Merkel cell polyomavirus T antigen …; assay: multimer staining
[6] = molecular target: T2, Merkel cell polyomavirus T antigen …; assay: IFN-g ELISA; COS-7 given HLA-A*02:01 and tLTAg plasmids (antigen processed); T cell clone or line
Method: IFN-γ in cell culture supernatants was assayed by ELISA according to manufacturer's recommendations (Human IFN gamma ELISA Ready-SET-Go Kit, affymetrix). […] Supernatants were assayed by ELISA as described above. […] After incubating for 24 hours, wells were transfected using FuGENE HD (Promega) at a 6:1 ratio of transfection reagent to DNA with 25 ng HLA-A*02:01 and limiting dilution of pDEST103-GFP-tLTAg (25-0.08 ng) plus irrelevant DNA (pcDNA-6/myc-His C, Gateway) to a total of 25 ng. 48 hours after transfection, 10^4 viable KLL-specific T cells in TCM were added to target wells in duplicate. […] Transfected COS-7 cells were harvested at 48 and 72 hours post-transfection to quantitate transfection efficiency by flow cytometry.

[7] = molecular target: T2, Merkel cell polyomavirus T antigen …; assay: binding, other

Row | Molecule | EC50 of peptide [3] | binding result [4] | binding result [5] | other results
1 | avelumab |  |  |  | objective response ([1]; 5 MCC patients): 80%; duration of complete responses [1]: > 1 year; toxicities with the addition of avelumab [1]: no increased toxicities; complete responses (CRs) ([1]; of 5 MCC patients): 3 patients
2 | KLLEIAPNC [MCPyV] |  |  |  | predicted to bind to HLA-A*02 better than homologous peptides [2]: approximately 100 ×
3 | MCC1 (TCR, V domains shown) Valpha: RKEVEQDPGPFNVPEGATVAFNCTYSNSASQSFFWYRQDCRKEPKLLMSVYSSGNEDGRFTAQLNRASQYISLLIRDSKLSDSATYLCVVATYSGGGADGLTFGKGTHLIIQP Vbeta: DAGITQSPRYKITETGRQVTLMCHQTWSHSYMFWYRQDLGHGLRLIYYSAAADITDKGEVPDGYVVSRSKTENFPLTLESATRSQTSVYFCASSSGNPSTDTQYFGPGTRLTVL | 0.0094 ng/mL and 0.028 ng/mL | recognises | recognises | 
4 | w830 clonotype 2 (TCR) alpha TRAV38-1*01 TRAJ27*01 CDR3: CALTSGSRLTF beta TRBV19*01 TRBJ1-5*01 CDR3: CASSIMLYSNQPQHF |  |  |  | EC50 of tLTAg plasmid DNA [6]: 140000 ng/mL
5 | w830 clonotype 3 (TCR) alpha TRAV38-1*01 TRAJ34*01 CDR3: CAYPSTDKLIF beta TRBV19*01 TRBJ1-5*01 CDR3: CASSILGASNQPQHF |  |  |  | EC50 of tLTAg plasmid DNA [6]: 270000 ng/mL
6 | w830 clonotype 4 (TCR) alpha TRAV12-1*01 TRAJ43*01 CDR3: CVLNNNDMRF beta TRBV19*01 TRBJ1-5*01 CDR3: CASSILGASNQPQHF | 1.1 ng/mL | recognises | recognises | 
7 | w683 clonotype 2 (TCR) alpha TRAV12-1*01 TRAJ43*01 CDR3: CVLNNNDMRF beta TRBV6-5*01 TRBJ1-2*01 CDR3: CASRSQNYYGYTF | 0.21 ng/mL | recognises | recognises | 
8 | w678 clonotype 1 (TCR) alpha TRAV12-1*01 TRAJ43*01 CDR3: CVLNNNDMRF beta TRBV10-3*01 TRBJ2-2*01 CDR3: CAIRQFDANTGELFF | 0.43 ng/mL and 0.5 ng/mL and 0.47 ng/mL |  |  | EC50 of tLTAg plasmid DNA [6]: 320 ng/mL
9 | w678 clonotype 2 (TCR) alpha TRAV38-1*01 TRAJ43*01 CDR3: CAFRVSHDMRF beta TRBV19*01 TRBJ2-1*01 CDR3: CASSIIAGSSYNEQFF | 0.017 ng/mL and 0.012 ng/mL | recognises |  | 
10 | w678 clonotype 3 (TCR) alpha TRAV12-1*01 TRAJ45*01 CDR3: CVVATYSGGGADGLTF beta TRBV19*01 TRBJ2-1*01 CDR3: CASSIIAGSSYNEQFF | 0.022 ng/mL and 0.013 ng/mL |  |  | EC50 of tLTAg plasmid DNA [6]: 1000 ng/mL
11 | w678 clonotype 5 (TCR) alpha TRAV38-1*01 TRAJ43*01 CDR3: CAFRVSHDMRF beta TRBV10-2*01 TRBJ2-3*01 CDR3: CASSSGNPSTDTQYF | 0.11 ng/mL and 0.054 ng/mL | recognises |  | 
12 | w876 clonotype 1 (TCR) alpha TRAV12-1*01 TRAJ45*01 CDR3: CVVGEYSGGGADGLTF beta TRBV28*01 TRBJ2-1*01 CDR3: CAIRAGASYNEQFF | 0.31 ng/mL |  |  | EC50 of tLTAg plasmid DNA [6]: 5600 ng/mL
13 | w876 clonotype 2 (TCR) alpha TRAV12-1*01 TRAJ45*01 CDR3: CVVTEYSGGGADGLTF beta TRBV10-3*01 TRBJ2-2*01 CDR3: CASRGQNTGELFF | 1.2 ng/mL | recognises | recognises | 
14 | w876 clonotype 3 (TCR) alpha TRAV19*01 TRAJ40*01 CDR3: CALGGGTFTSGTYKYIF beta TRBV9*02 TRBJ2-2*01 CDR3: CASSVEDYTGELFF | 0.12 ng/mL |  |  | EC50 of tLTAg plasmid DNA [6]: 11000 ng/mL
15 | w876 clonotype 4 (TCR) alpha TRAV12-1*01 TRAJ45*01 CDR3: CVVYTGYSGGGADGLTF beta TRBV10-2*01 TRBJ2-2*01 CDR3: CASSVLNTGELFF | 0.31 ng/mL |  |  | EC50 of tLTAg plasmid DNA [6]: 14000 ng/mL
16 | w876 clonotype 5 (TCR) alpha TRAV38-1*01 TRAJ23*01 CDR3: CAYNQGGKLIF beta TRBV10-2*01 TRBJ2-2*01 CDR3: CASSVLNTGELFF | 0.11 ng/mL | recognises | recognises | 
17 | w876 clonotype 6 (TCR) alpha TRAV12-1*01 TRAJ3*01 CDR3: CVVPLYSSASKIIF beta TRBV6-1*01 TRBJ1-1*01 CDR3: CASSDTPDLNTEAFF | 0.015 ng/mL and 0.035 ng/mL | recognises | recognises | 
18 | w876 clonotype 8 (TCR) alpha TRAV12-1*01 TRAJ3*01 CDR3: CVVYASKIIF beta TRBV6-1*01 TRBJ1-1*01 CDR3: CASSDTPDLNTEAFF |  |  |  | EC50 of tLTAg plasmid DNA [6]: 4200 ng/mL
19 | w876 clonotype 9 (TCR) alpha TRAV12-1*01 TRAJ43*01 CDR3: CVGNNNDMRF beta TRBV10-3*01 TRBJ2-2*01 CDR3: CAISARDQNTGELFF | 0.12 ng/mL and 0.24 ng/mL | recognises | recognises | 
20 | w876 clonotype 10 (TCR) alpha TRAV12-1*01 TRAJ37*02 CDR3: CVVYGSSNTGKLIF beta TRBV10-3*01 TRBJ2-2*01 CDR3: CAIRRQDQNTGELFF | 0.7 ng/mL | recognises | recognises | 

Row | Molecule | EC50 of peptide [3] | binding result [4] | binding result [5] | other results
21 | w876 clonotype 13 (TCR) alpha TRAV12-1*01 TRAJ45*01 CDR3: CVVTDTSGGGADGLTF beta TRBV7-2*04 TRBJ2-3*01 CDR3: CASSLAGLAGTDTQYF |  |  |  | EC50 of tLTAg plasmid DNA [6]: 3900 ng/mL
22 | w876 clonotype 14 (TCR) alpha TRAV12-1*01 TRAJ27*01 CDR3: CVVPSAGKSTF beta TRBV2*03 TRBJ2-5*01 CDR3: CASSEFAGQETQYF |  |  |  | EC50 of tLTAg plasmid DNA [6]: 5400 ng/mL
23 | w876 clonotype 16 (TCR) alpha TRAV38-1*01 TRAJ23*01 CDR3: CAYNQGGKLIF beta TRBV19*01 TRBJ2-1*01 CDR3: CASSTLSGTHNEQFF | 0.12 ng/mL | recognises | recognises | 
24 | w876 clonotype 19 (TCR) alpha TRAV12-1*01 TRAJ45*01 CDR3: CVVYTGYSGGGADGLTF beta TRBV10-2*01 TRBJ2-2*01 CDR3: CASSGQNTGELFF | 0.92 ng/mL | recognises | recognises | 
25 | w876 clonotype 29 (TCR) alpha TRAV12-1*01 TRAJ3*01 CDR3: CVVPLYSSASKIIF beta TRBV10-2*01 TRBJ2-2*01 CDR3: CASSVLNTGELFF | 0.12 ng/mL and 0.16 ng/mL |  |  | EC50 of tLTAg plasmid DNA [6]: 3300 ng/mL
26 | w876 clonotype 20 (TCR) alpha TRAV10*01 TRAJ45*01 CDR3: CVVSAGINGADGLTF beta TRBV12-4*01 TRBJ2-1*01 CDR3: CASSPWDEQFF |  | recognises |  | 
27 | w876 clonotype 21 (TCR) alpha TRAV3*01 TRAJ40*01 CDR3: CAVRDNSGTYKYIF beta TRBV13*02 TRBJ2-1*01 CDR3: CASSSGTSGGLTYNEQFF |  | recognises |  | 
28 | w876 clonotype 23 (TCR) alpha TRAV12-3*01 TRAJ57*01 CDR3: CAMSVAQGGSEKLVF beta TRBV6-6*01 TRBJ2-7*01 CDR3: CASSYQIGLSYEQYF |  | recognises |  | 
29 | w876 clonotype 26 (TCR) alpha TRAV12-1*01 TRAJ45*01 CDR3: CVVYTGYSGGGADGLTF beta TRBV13*02 TRBJ2-1*01 CDR3: CASSSGTSGGLNYNEQFF |  | recognises |  | 
30 | w876 clonotype 27 (TCR) alpha TRAV3*01 TRAJ11*01 CDR3: CALTGYSTLTF beta TRBV19*01 TRBJ2-1*01 CDR3: CASRSQLAVLNEQFF |  | recognises |  | 
31 | X389-6 (TCR, V domains shown) Valpha: ILNVEQSPQSLHVQEGDSTNFTCSFPSSNFYALHWYRWETAKSPEALFVMTLNGDEKKKGRISATLNTKEGYSYLYIKGSQPEDSATYLCAWNTDKLIFGTGTRLQVFP Vbeta: DAGVIQSPRHEVTEMGQEVTLRCKPISGHNSLFWYRQTMMRGLELLIYFNNNVPIDDSGMPEDRFSAKMPNASFSTLKIQPSEPRDSAVYFCASSLAGDRSFGPGTRLTVT |  |  |  | binding result [7]: recognises
32 | X389-8 (TCR, V domains shown) Valpha: RKEVEQDPGPFNVPEGATVAFNCTYSNSASQSFFWYRQDCRKEPKLLMSVYSSGNEDGRFTAQLNRASQYISLLIRDSKLSDSATYLCVVTGTGGFKTIFGAGTRLFVKA Vbeta: GEEVAQTPKHLVRGEGQKAKLYCAPIKGHSYVFWYQQVLKNEFKFLISFQNENVFDETGMPKERFSAKCLPNSPCSLEIQATKLEDSAVYFCASSSMSIAAGNTGELFFGEGSRLTVL |  |  |  | binding result [7]: recognises
33 | MCC1H (TCR, V domains shown) Valpha: QQQVKQSPQSLIVQKGGISIINCAYENTAFDYFPWYQQFPGKGPALLIAIRPDVSEKKEGRFTISFNKSAKQFSLHIMDSQPGDSATYFCAVPNTGNQFYFGTGTSLTVIP Vbeta: GAGVSQSPRYKVAKRGQDVALRCDPISGHVSLFWYQQALGQGPEFLTYFQNEAQLDKSGLPSDRFFAERPEGSVSTLKIQRTQQEDSAVYLCASSLIAGLSYEQYFGPGTRLTVT |  |  |  | binding result [7]: recognises
34 | w830 clonotype 5 (TCR) alpha TRAV12-1*01 TRAJ43*01 CDR3: CVVNANDMRF beta TRBV10-3*01 TRBJ2-2*01 CDR3: CAIRARDQNTGELFF |  | recognises | recognises | 
35 | w683 clonotype 1 (TCR) alpha TRAV12-1*01 TRAJ45*01 CDR3: CVVALYSGGGADGLTF beta TRBV6-5*01 TRBJ1-2*01 CDR3: CASRSQNYYGYTF |  | recognises | recognises | 
36 | w876 clonotype 11 (TCR) alpha TRAV12-1*01 TRAJ45*01 CDR3: CVVYTGYSGGGADGLTF beta TRBV10-3*01 TRBJ2-2*01 CDR3: CAIHEGDSNTGELFF |  | recognises | recognises | 
37 | w876 clonotype 12 (TCR) alpha TRAV3*01 TRAJ40*01 CDR3: CAVRDNSGTYKYIF beta TRBV7-2*04 TRBJ2-3*01 CDR3: CASSLAGLAGTDTQYF |  | recognises |  | 
38 | w876 clonotype 17 (TCR) alpha TRAV12-1*01 TRAJ37*02 CDR3: CVVYGSSNTGKLIF beta TRBV7-2*04 TRBJ2-1*01 CDR3: CASSLAGLANNEQFF |  | recognises |  | 
39 | w876 clonotype 18 (TCR) alpha TRAV14 TRAJ13*01 CDR3: CAMREAQSGGYQKVTF beta TRBV12-4*01 TRBJ2-3*01 CDR3: CASSFGSGTKDTQYF |  | recognises | recognises | 
